Consider 45 sequences from the Immune Epitope Database (IEDB).

In assay [1] the target is HLA-B*44:02. As to the kind of experiment: IEDB peptide-MHC binding, purified MHC/competitive/radioactivity; filed as Kd, often an IC50 or EC50 that approximates it; ≥ and ≤ were set here for values at or beyond the usual limits of such assays. To be noted: source organism: Dengue virus 3 Martinique/1243/1999.
The target in assay [2] is HLA-B*58:01. Briefly: IEDB peptide-MHC binding, purified MHC/direct/fluorescence; filed as Kd, often an IC50 or EC50 that approximates it; ≥ and ≤ were set here for values at or beyond the usual limits of such assays.
In assay [3] the target is HLA-A*30:02. As to the kind of experiment: IEDB peptide-MHC binding, purified MHC/competitive/radioactivity; filed as Kd, often an IC50 or EC50 that approximates it; ≥ and ≤ were set here for values at or beyond the usual limits of such assays.
The target in assay [4] is HLA-A*26:01. The description is as above.
The target of assay [5] is HLA-A*24:02. The description is as above.
The target in assay [6] is HLA-A*01:01. The description is as above.
For assay [7], the target named is HLA-A*03:01. As to the kind of experiment: IEDB peptide-MHC binding, purified MHC/direct/fluorescence; filed as Kd, often an IC50 or EC50 that approximates it; ≥ and ≤ were set here for values at or beyond the usual limits of such assays.
Assay [8] deals with HLA-A*02:06. Briefly: IEDB peptide-MHC binding, purified MHC/competitive/radioactivity; filed as Kd, often an IC50 or EC50 that approximates it; ≥ and ≤ were set here for values at or beyond the usual limits of such assays.
Assay [9] deals with HLA-B*07:02. Briefly: IEDB peptide-MHC binding, purified MHC/direct/fluorescence; filed as Kd, often an IC50 or EC50 that approximates it; ≥ and ≤ were set here for values at or beyond the usual limits of such assays. To be noted: source organism: Human immunodeficiency virus 1.
For assay [10], the target named is HLA-A*02:03. Briefly: IEDB peptide-MHC binding, purified MHC/competitive/radioactivity; filed as Kd, often an IC50 or EC50 that approximates it; ≥ and ≤ were set here for values at or beyond the usual limits of such assays.
In assay [11] the target is HLA-A*02:02. Described as above.
Where [12] appears, read: source organism: Dengue virus 3 Martinique/1243/1999.
[13] abbreviates: source organism: Dengue virus 2 Jamaica/1409/1983.
Where [14] appears, read: source organism: Dengue virus 4 Philippines/H241/1956.
[15] abbreviates: source organism: Lassa virus Josiah.
[16] abbreviates: source organism: Dengue virus 1 Brazil/97-11/1997.
Where [17] appears, read: source organism: Dengue virus 1 Nauru/West Pac/1974.
The mark [18] stands for this setting: source organism: Mammarenavirus lassaense.
[19] abbreviates: source organism: Vaccinia virus WR.
The mark [20] stands for this setting: source organism: Lymphocytic choriomeningitis virus (strain Armstrong).

Take NEEKITQQM: the equilibrium dissociation constant (Kd) in assay [1] was determined as 578 nM.

The sequence RDTAEAAKW gave a dissociation constant (Kd) in assay [2] (source organism: Mycobacterium tuberculosis variant bovis) of 1590 nM.

On to CGRGGWSYY, for which, in assay [3] (setting [12]), the Kd came out at 253 nM.

Take VLVGVVTLY: the Kd in assay [3] (setting [13]) worked out at 58.3 nM; in [4] (setting [13]) it was 13600 nM.

On to IYGAAFSGV, for which the dissociation constant (Kd) in assay [5] (setting [13]) is 398 nM.

As to LTDFQSHQL, in [6] (source organism: Dengue virus 1 Singapore/S275/1990), the Kd amounted to 6440 nM.

Turning to ENPYRTWAYH, in assay [4] (setting [14]), the dissociation constant Kd was not below 69700 nM.

Consider LTLTAAVLLL, for which the Kd in assay [6] (setting [12]) stood at 13900 nM.

PFDTRQMLFY: in [6] (source organism: Homo sapiens), the dissociation constant (Kd) worked out at 252 nM.

In assay [7] (source organism: Cryptosporidium parvum), FFAFGHMIK gave a Kd not below 20000 nM.

With IGKMFESTY, in assay [3] (source organism: Dengue virus 4 Dominica/814669/1981), the dissociation constant Kd came out at 338 nM.

As to RYPLTFGWCF, the dissociation constant (Kd) in assay [5] (source organism: HIV-1 M:B_ARV2/SF2) turned out to be 17 nM.

Sequence HFFMKHPNK had a Kd in assay [7] (source organism: Coxiella burnetii) of 218 nM.

As for HYLCLNCLT, the dissociation constant (Kd) is 3020 nM in assay [3] (setting [15]), not below 77900 nM in [4] (setting [15]) and 6910 nM in assay [6] (setting [15]).

Turning to AEITPQAST, the dissociation constant (Kd) in [1] turned out to be 16.5 nM.

For LVQIENLEY, the values for the Kd in [3] (setting [14]) and in assay [6] (setting [14]) were 1110 nM and 90.4 nM, respectively.

As for ESEMIIPKNF, the equilibrium dissociation constant (Kd) in assay [4] (setting [13]) is not below 69700 nM; in assay [6] (setting [13]), not below 70400 nM.

Regarding EISSMLNIM, in [4] (setting [16]), the Kd stood at 657 nM.

Consider FTDPSSVAA, for which the Kd was found to be 59.4 nM in assay [8] (setting [14]) and 1.71 nM in assay [6] (setting [14]).

As for EAEPPFGESY, the dissociation constant (Kd) in assay [4] (setting [17]) came out at 669 nM; in [6] (setting [17]), 1360 nM.

As to LSNAGSNNW, the Kd in [2] (source organism: Mycobacterium tuberculosis) came to 48.6 nM.

For DTSEVHWNY, the Kd came to 3860 nM in [3] (setting [14]), 41.6 nM in assay [4] (setting [14]) and 111 nM in assay [6] (setting [14]).

In assay [9], IPLTEEAEL had a Kd of 5310 nM.

In the case of ETLMLLALIA, the Kd in assay [4] (setting [16]) was not below 33600 nM.

Take ELPETMETLL: the dissociation constant (Kd) in assay [4] (setting [12]) stood at 2370 nM.

ITLTAALLLL: the Kd in [8] (setting [13]) is 27.4 nM; in assay [6] (setting [13]), 5940 nM.

As to LLWDYMCIS, the values for the Kd in assay [10] (setting [18]), in assay [8] (setting [18]) and in [11] (setting [18]) were 596 nM, 408 nM and 146 nM, respectively.

On to VTGSYNLVDT, for which the Kd was not below 70400 nM in [10] (setting [19]), not below 69800 nM in assay [8] (setting [19]) and not below 70000 nM in assay [11] (setting [19]).

Turning to TWAKNIHTAI, in assay [5] (setting [14]), the Kd was 2000 nM.

GTMPSLTMAC: the values for the Kd in assay [10] (setting [20]), in assay [8] (setting [20]) and in assay [11] (setting [20]) were 16300 nM, 12100 nM and not below 25200 nM, respectively.

As for MVTLYLGVM, the Kd in assay [4] (setting [16]) is 163 nM.

As for KKGKVVGLY, the Kd in [3] (source organism: Dengue virus 2 Peru/IQT2913/1996) was 85.3 nM.

Consider DINESMSQMV, for which the values for the Kd in assay [10] (setting [19]), in assay [8] (setting [19]) and in assay [11] (setting [19]) were 488 nM, 4150 nM and 312 nM, respectively.

For TTEAILPEY, the Kd was not below 54300 nM in [3] (setting [12]), 1180 nM in assay [4] (setting [12]) and 30.6 nM in [6] (setting [12]).

For ELENKKVEYV, the dissociation constant (Kd) in [10] (setting [19]) is 3650 nM; in [8] (setting [19]), not below 69800 nM; in [11] (setting [19]), not below 21400 nM.

As to QIFNIISYII, the equilibrium dissociation constant (Kd) in assay [10] (setting [19]) was found to be 206 nM; in assay [8] (setting [19]), 743 nM; in assay [11] (setting [19]) it was 288 nM.

For LTGTFVTAFI, the figures for the Kd in assay [10] (setting [19]), in [8] (setting [19]) and in assay [11] (setting [19]) were 596 nM, 413 nM and 672 nM, respectively.

For the sequence TIESAKTKI, the dissociation constant (Kd) is not below 54100 nM in [10] (setting [19]), not below 51100 nM in assay [8] (setting [19]) and 16300 nM in assay [11] (setting [19]).

On to IKYTDRKWCF, for which the Kd in assay [5] (setting [12]) is 2370 nM.

With PLSPDTCLLA, the Kd in [10] (setting [19]) was 9310 nM; in [8] (setting [19]) it was 19900 nM; in [11] (setting [19]) it was 11200 nM.

For the sequence IQYRQQLEL, the equilibrium dissociation constant (Kd) in assay [10] (setting [19]) was 44.9 nM; in [8] (setting [19]) it was 41.3 nM; in assay [11] (setting [19]), 511 nM.

Turning to YVILKDPRIA, the figures for the Kd in [10] (setting [19]), in assay [8] (setting [19]) and in [11] (setting [19]) were 355 nM, 1900 nM and 6010 nM, respectively.

VTTWENVPYL: in assay [6] (setting [12]), the dissociation constant Kd was 11300 nM.

Turning to DISDVKVLAA, the Kd was 2200 nM in assay [10] (setting [19]), 4610 nM in assay [8] (setting [19]) and not below 33800 nM in assay [11] (setting [19]).

As for LNQAVNNLV, the Kd in [10] (setting [15]) came to 3350 nM; in assay [8] (setting [15]) it was 13600 nM; in assay [11] (setting [15]), 510 nM.

The term Kd denotes a measure of binding affinity in units of concentration.
